Source: the supplement of paper PMC10724198
± gives the standard deviation of the averaged measurements.

system: Saccharomyces cerevisiae; assay: protein stability index of tFT-peptide fusion (C-terminal peptide) (PSI (0-1 scale)); higher = more stable (slower turnover); conditions: genetic background: wild type; temperature: 30 C
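Also: PSI is a weighted mean of sequencing reads over stability bins, variants kept only with over 10 reads, mCherry proximal and sfGFP distal, peptide attached via GGGS linker.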

Sequence | protein stability index
STLAPRVYLRLR | 0.676 ± 0.032
STPLLLSPPLFC | 0.649 ± 0.04
STPSMGSMTRLE | 0.731 ± 0.041
STPSPPPAPRSP | 0.708 ± 0.015
STPVEATQDVAR | 0.724 ± 0.0083
STQGAFHFLVSL | 0.679 ± 0.015
STRFVRNEFGVS | 0.665 ± 0.035
STVFAICQVLPI | 0.6592 ± 0.0021
STVGSKLCWESS | 0.682 ± 0.072
SVCEWSRVGIRL | 0.6476 ± 0.0056
SVETVSSSSVAD | 0.656 ± 0.057
SVFERDWTGGEV | 0.7184 ± 0.00085
SVGFVGVGCRGR | 0.707 ± 0.025
SVGGVGGAVGGG | 0.663 ± 0.014
SVGLTGHGTRGV | 0.571
SVGPWVSSGGFR | 0.6664 ± 0.0048
SVHAMDCNGYAN | 0.643 ± 0.013
SVLRWAVLGQTR | 0.728 ± 0.18
SVLSVAIRAPTQ | 0.691 ± 0.093
SVLVLPVLFLED | 0.6884 ± 0.004
SVMFSSLTRPPL | 0.65 ± 0.11
SVPGLELGLPLR | 0.675 ± 0.061
SVPRPPPPRAPL | 0.646 ± 0.17
SVRCPPLSPRPP | 0.667 ± 0.036
SVRLTYQNIIVN | 0.583 ± 0.02
SVSRGAPSGSLG | 0.688 ± 0.067

Sequence | protein stability index
SVSRGSWVWGRL | 0.723 ± 0.061
SVTTNDQLPCHS | 0.691 ± 0.026
SVVGHGVCGGRG | 0.649 ± 0.11
SVVSSDVGGGRI | 0.5391 ± 0.0047
SVYGIASRAQLL | 0.64 ± 0.11
SWCRCLALLDCT | 0.659 ± 0.028
SWGGGGGGAGRG | 0.653 ± 0.017
SWPLIFSLPNFI | 0.716 ± 0.026
SWPMLSVLADER | 0.717 ± 0.04
SWPPCPSGRGRG | 0.727 ± 0.029
SWPTRRLVVHGL | 0.655 ± 0.0071
SWRRRNGNCERR | 0.646 ± 0.063
SYDNPPDTSRPR | 0.768 ± 0.046
SYFVIPGLSLSV | 0.568 ± 0.056
SYGADSVSYLKT | 0.651 ± 0.033
SYGPKMAKAVFR | 0.706 ± 0.056
SYKAFVFSSDVW | 0.77 ± 0.045
SYKIDYIDIRVG | 0.59 ± 0.029
SYLHALSRPSLL | 0.734 ± 0.03
SYLPLGTVLMLG | 0.681 ± 0.032
SYPDYFDSDSSD | 0.716 ± 0.011
SYSPPPLPPHPP | 0.55109 ± 0.00031
SYTAPPLLRSSY | 0.679 ± 0.015
TAQKHQQPVQLH | 0.715 ± 0.028
TARDLEGTRAKG | 0.638 ± 0.028
TASAAKGAAPQQ | 0.676 ± 0.016

Sequence | protein stability index
TASFVSSGLLAF | 0.586 ± 0.012
TASLQGCANGQS | 0.674 ± 0.012
TAVPRARRRVVR | 0.712 ± 0.018
TCLMLSCRSFLW | 0.63 ± 0.018
TDFRSGLIFIIV | 0.544 ± 0.045
TDLGYGRLGGWV | 0.682 ± 0.083
TEIKILNKKKSR | 0.7294 ± 0.0043
TELSLHFAGYAE | 0.74 ± 0.031
TERGRLVWYCMR | 0.674 ± 0.077
TETAHNFPYCCD | 0.676 ± 0.025
TEVRHMKGVAWW | 0.6919 ± 0.0044
TFENLFRLPWFK | 0.699 ± 0.052
TFLYLSGRVVGL | 0.651 ± 0.013
TFPGRLPLTRLP | 0.726 ± 0.038
TFPPLSPSPPLS | 0.727 ± 0.13
TFSVPLPPPLAP | 0.6573 ± 0.0038
TFVVGTRVFSCD | 0.631 ± 0.096
TFYLHSLLPTSF | 0.6913 ± 0.0024
TGCGSRSSRTKT | 0.864 ± 0.021
TGCRAVPDLNAD | 0.695 ± 0.018
TGIGPWVSPSIC | 0.667 ± 0.018
TGISPWPPSERR | 0.808 ± 0.19
TGLYLRCVWGVQ | 0.507 ± 0.046
TGNARCYFGKSV | 0.692 ± 0.011
TGNQCGNGYSWR | 0.696 ± 0.013
TGPIIPSDNRFL | 0.692 ± 0.04

Sequence | protein stability index
TGRGGAPRAKEE | 0.699 ± 0.0039
TGSLSSTCPPAT | 0.717 ± 0.075
THHPQRPPRTLP | 0.745 ± 0.062
THHSDLHPRTAP | 0.697 ± 0.033
THLDKLYPKEHT | 0.689 ± 0.054
THPPLPPYLSPP | 0.727 ± 0.015
THYKLFGSLNLL | 0.634 ± 0.035
TIPSHPLLPTLC | 0.648 ± 0.049
TISFASLLPPPF | 0.723 ± 0.048
TISHPLGPFSVH | 0.66 ± 0.042
TIVRTTLLEIWR | 0.619 ± 0.04
TKKDNKYNRNKK | 0.656 ± 0.029
TKKKPGEPGKRK | 0.666 ± 0.013
TKLRHHKTQIVD | 0.652 ± 0.059
TKNNYKKKKTKT | 0.682 ± 0.029
TKNTEGVKNSLF | 0.64 ± 0.096
TLAPPSRATPPP | 0.648 ± 0.041
TLCITHARCFVK | 0.63 ± 0.0069
TLGLDPCCSYSR | 0.752 ± 0.15
TLLCGDASVLTA | 0.658 ± 0.071
TLPRSLGPSSPA | 0.753 ± 0.076
TLPVKAGHWRLG | 0.73084 ± 0.00065
TLSPAPSPTPPP | 0.678 ± 0.048
TLSPFRLFGPIS | 0.722 ± 0.092
TLSSPPPPPPPP | 0.663 ± 0.046
TLSTSPPPCHPL | 0.667 ± 0.06

Sequence | protein stability index
TMCRGGVSSQDL | 0.662 ± 0.057
TMEKKAKKRIKK | 0.682 ± 0.23
TMHFVWVLGILE | 0.524 ± 0.014
TNKKKNRNKKAK | 0.657 ± 0.073
TNLYGWGGERTV | 0.688 ± 0.0092
TNVRMGCELEEK | 0.716 ± 0.14
TNYWDRGSIQPK | 0.668 ± 0.021
TPAIPTTLMSLR | 0.67 ± 0.063
TPLHRIGGLHLK | 0.653 ± 0.0075
TPPLALPAPCST | 0.679 ± 0.035
TPPLPRFHAPQP | 0.665 ± 0.017
TPPLRPLLYSNA | 0.53 ± 0.059
TPPPAPRPPLPS | 0.719 ± 0.069
TPPPLRTASLLP | 0.67 ± 0.1
TPPSPDPSPPNT | 0.789 ± 0.046
TPSPHTPLPLAP | 0.708 ± 0.09
TPSPTRCPTPTR | 0.6 ± 0.025
TPTLPPPSPTFH | 0.666 ± 0.021
TPTSPPLPLTIS | 0.579 ± 0.016
TPWLRGVVGPGS | 0.671 ± 0.083
TQGLSSYYRHKI | 0.686 ± 0.061
TQLSSVVVGGRR | 0.669 ± 0.015
TRCDSSGGSAAP | 0.68 ± 0.094
TRDATESLVERV | 0.694 ± 0.02
TRFFFLLCRRSL | 0.57 ± 0.082
TRGAGAKYSSVR | 0.721 ± 0.019

Sequence | protein stability index
TRGKETESIDSR | 0.685 ± 0.036
TRICFPRFPPAP | 0.703 ± 0.044
TRIGNGHPLGCG | 0.718 ± 0.024
TRKRIKKHSMNK | 0.672 ± 0.085
TRLVYFYLGRDI | 0.656 ± 0.054
TRRRGGAREGPY | 0.758 ± 0.064
TRSLPTLSPPPS | 0.659 ± 0.086
TRSPTVAMRPKE | 0.676 ± 0.036
TRTQTLAGILGG | 0.677 ± 0.029
TRTRSMTQLVPL | 0.716 ± 0.068
TRYGVRVPGRFR | 0.678 ± 0.018
TSARQGFFASLV | 0.646 ± 0.049
TSCPPAHLPPPP | 0.659 ± 0.046
TSGDFLPSHSFL | 0.702 ± 0.074
TSPGLPLPLPSP | 0.716 ± 0.0048
TSPLSPPLPSFR | 0.696 ± 0.021
TSPLSPSGPQSS | 0.86 ± 0.14
TSPPPPSRPPSH | 0.691 ± 0.029
TSPSLSALLSFV | 0.715 ± 0.073
TSPVCPARPRQL | 0.646 ± 0.042
TSSASVCASSVQ | 0.588 ± 0.023
TSSTEKTKTKRP | 0.809 ± 0.17
TTITTRSCALSS | 0.707 ± 0.015
TTMNELPKSIKK | 0.739 ± 0.042
TTPPPLPSDPLR | 0.622 ± 0.026
TTRACVTRGCSV | 0.623 ± 0.051

Sequence | protein stability index
TTRTAAKKIHKD | 0.74 ± 0.055
TTSQGHLCVAPR | 0.6827 ± 0.0038
TTSSRDYIELLL | 0.729 ± 0.016
TTTFPFGRLVLS | 0.68 ± 0.028
TTVLRTFGDKQF | 0.715 ± 0.00088
TTVRTVSLIDRI | 0.689 ± 0.059
TVAEGKKMRGKV | 0.672 ± 0.036
TVLKCECEYFLH | 0.654 ± 0.019
TVPGKDEGEESV | 0.696 ± 0.037
TVRAPLDSARCP | 0.739 ± 0.017
TVWSSPPSRRSS | 0.699 ± 0.043
TWAVTGDLLITR | 0.815 ± 0.15
TWCSFHFYSFWC | 0.578 ± 0.01
TWIPSFACQSLQ | 0.70274 ± 0.00029
TYLSSPAPLLPL | 0.694 ± 0.033
TYQNAKAEPTRV | 0.671 ± 0.038
VACKGCVVACRV | 0.527 ± 0.045
VACLVGVRGSWV | 0.66683 ± 0.00048
VAESPGWAAGVD | 0.689 ± 0.015
VAGDGYDVMDNG | 0.553 ± 0.029
VAGFPSPVVLGW | 0.607 ± 0.085
VALFIRITKHEY | 0.549 ± 0.027
VAPPVLCRCSLR | 0.6481 ± 0.0052
VARVGFRETLSF | 0.703 ± 0.05
VATVSLSVRNTS | 0.66 ± 0.033
VAVGLGRAVFGV | 0.611 ± 0.034

Sequence | protein stability index
VAVWGGSGDWGR | 0.729 ± 0.068
VCAEGAAYSDKA | 0.646 ± 0.038
VCAFGFPAASRV | 0.6627 ± 0.0046
VCFSVSWSGLSC | 0.681 ± 0.009
VCGALRWCGGPD | 0.705 ± 0.018
VCGLRFLLFGCG | 0.63 ± 0.021
VCIGVGGVVLGL | 0.642 ± 0.039
VCKQASDSKLQG | 0.663 ± 0.023
VCLRVGQGVLWW | 0.727 ± 0.021
VCLVCLFNACRF | 0.608 ± 0.032
VCLVNWLCFFCV | 0.529 ± 0.037
VCPPSPTLKPPP | 0.624 ± 0.011
VCRRSVLHSCWS | 0.678 ± 0.0097
VCRTLAPCIRWR | 0.633 ± 0.063
VCSLSCVGIWYW | 0.625 ± 0.0039
VCTRACFLFAYP | 0.582 ± 0.015
VDCYIFPGIGAL | 0.701 ± 0.041
VDHWVCWCGGWV | 0.731 ± 0.0098
VDINYVIGRIRS | 0.642 ± 0.0087
VDRAFVWYLRDL | 0.695 ± 0.0076
